Laboratory results taken from article PMC9188544, “Mechanism of glycogen synthase inactivation and interaction with glycogenin” (Nature Communications, 2022).

What was measured:
Experiment in all cases: co-purification (HisTrap, TEV cleavage, Ni subtraction, Superdex200 gel filtration); GS WT or mutant co-expressed with GN(Y195F) in insect cells, both with N-terminal His6-TEV; lysate loaded on the HisTrap column
Details in all cases: partners not purified
[1] = target: T1, human glycogen synthase 1 (GS1) Y600A (human, UniProt P13807 1-737, Y600A, phosphorylation at S8, S641 and S641/S645 probed by immunoblot (Fig. 4b))
T1 construct: glycogen synthase 1 (muscle), human, encoded by GYS1, cDNA NM 002103; also called GS Y600A; not shown: His6, N-terminal, cleaved
T1 sequence (looked up): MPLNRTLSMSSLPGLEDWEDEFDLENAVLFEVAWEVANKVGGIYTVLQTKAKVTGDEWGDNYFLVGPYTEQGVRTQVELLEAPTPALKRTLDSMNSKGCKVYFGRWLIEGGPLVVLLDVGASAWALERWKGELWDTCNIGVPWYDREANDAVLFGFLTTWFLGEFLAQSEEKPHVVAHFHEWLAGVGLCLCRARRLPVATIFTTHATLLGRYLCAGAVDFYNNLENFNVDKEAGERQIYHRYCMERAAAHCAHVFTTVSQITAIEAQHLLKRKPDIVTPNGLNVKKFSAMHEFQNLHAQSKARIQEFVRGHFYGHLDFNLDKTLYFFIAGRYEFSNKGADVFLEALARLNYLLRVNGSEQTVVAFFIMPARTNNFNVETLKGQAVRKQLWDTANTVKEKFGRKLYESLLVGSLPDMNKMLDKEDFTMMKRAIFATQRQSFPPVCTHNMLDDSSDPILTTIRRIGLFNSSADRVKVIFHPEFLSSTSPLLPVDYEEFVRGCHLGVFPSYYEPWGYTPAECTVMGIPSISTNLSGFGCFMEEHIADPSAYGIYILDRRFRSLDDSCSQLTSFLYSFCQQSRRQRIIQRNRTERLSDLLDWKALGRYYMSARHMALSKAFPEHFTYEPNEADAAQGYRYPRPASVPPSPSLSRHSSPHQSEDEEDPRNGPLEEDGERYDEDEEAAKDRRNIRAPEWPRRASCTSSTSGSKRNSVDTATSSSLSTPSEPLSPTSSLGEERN

[2] = target: T2, human glycogen synthase 1 (GS1) R603A (human, UniProt P13807 1-737, R603A, phosphorylation at S8, S641 and S641/S645 probed by immunoblot (Fig. 4b))
T2 construct: glycogen synthase 1 (muscle), human, encoded by GYS1, cDNA NM 002103; also called GS R603A; not shown: His6, N-terminal, cleaved
T2 sequence (looked up): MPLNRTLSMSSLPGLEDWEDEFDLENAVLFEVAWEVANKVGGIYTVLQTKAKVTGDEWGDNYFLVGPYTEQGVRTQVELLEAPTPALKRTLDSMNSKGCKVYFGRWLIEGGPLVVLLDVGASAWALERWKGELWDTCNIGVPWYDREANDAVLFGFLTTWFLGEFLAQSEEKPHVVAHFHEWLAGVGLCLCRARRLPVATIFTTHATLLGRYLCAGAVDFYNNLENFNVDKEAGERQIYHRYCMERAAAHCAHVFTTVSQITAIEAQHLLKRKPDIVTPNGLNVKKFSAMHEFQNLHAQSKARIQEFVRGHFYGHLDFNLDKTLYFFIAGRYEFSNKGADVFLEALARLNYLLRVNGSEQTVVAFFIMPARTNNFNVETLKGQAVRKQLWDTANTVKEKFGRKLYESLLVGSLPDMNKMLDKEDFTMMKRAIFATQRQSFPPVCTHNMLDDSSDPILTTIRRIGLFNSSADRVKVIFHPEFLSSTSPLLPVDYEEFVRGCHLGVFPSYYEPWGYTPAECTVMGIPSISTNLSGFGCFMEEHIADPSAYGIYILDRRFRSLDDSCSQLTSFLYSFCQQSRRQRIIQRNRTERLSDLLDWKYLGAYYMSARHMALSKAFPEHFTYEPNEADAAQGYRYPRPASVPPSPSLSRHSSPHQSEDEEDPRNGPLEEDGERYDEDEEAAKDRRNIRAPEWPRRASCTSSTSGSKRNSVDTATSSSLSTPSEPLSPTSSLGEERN

[3] = target: T3, human glycogen synthase 1 (GS1) W18A (human, UniProt P13807 1-737, W18A, phosphorylation at S8, S641 and S641/S645 probed by immunoblot (Fig. 4b))
T3 construct: glycogen synthase 1 (muscle), human, encoded by GYS1, cDNA NM 002103; also called GS W18A; not shown: His6, N-terminal, cleaved
T3 sequence (looked up): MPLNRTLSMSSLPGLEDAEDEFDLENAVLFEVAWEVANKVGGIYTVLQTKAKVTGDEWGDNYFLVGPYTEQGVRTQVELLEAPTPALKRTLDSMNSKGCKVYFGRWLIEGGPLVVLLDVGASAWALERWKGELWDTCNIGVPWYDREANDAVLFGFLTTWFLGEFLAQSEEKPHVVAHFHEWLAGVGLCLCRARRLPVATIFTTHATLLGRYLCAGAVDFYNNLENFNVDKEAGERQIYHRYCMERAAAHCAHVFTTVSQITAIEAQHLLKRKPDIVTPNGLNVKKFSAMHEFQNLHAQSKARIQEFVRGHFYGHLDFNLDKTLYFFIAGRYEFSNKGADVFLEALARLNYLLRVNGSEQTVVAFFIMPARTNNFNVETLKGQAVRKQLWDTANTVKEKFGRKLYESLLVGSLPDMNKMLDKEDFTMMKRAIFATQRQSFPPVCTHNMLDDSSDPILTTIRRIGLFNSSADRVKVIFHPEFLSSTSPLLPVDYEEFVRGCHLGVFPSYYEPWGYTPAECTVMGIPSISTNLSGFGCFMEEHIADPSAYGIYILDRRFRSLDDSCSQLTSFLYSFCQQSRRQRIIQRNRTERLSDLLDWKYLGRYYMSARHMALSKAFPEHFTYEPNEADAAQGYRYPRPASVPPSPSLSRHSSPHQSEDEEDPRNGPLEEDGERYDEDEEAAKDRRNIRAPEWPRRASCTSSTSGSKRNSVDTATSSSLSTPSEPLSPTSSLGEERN

Measured: binding result

B1: human glycogenin 1 (GN1) Y195F, full length, non-glucosylated (enzyme, UniProt P46976-2 1-333, looked up)
chain: MTDQAFVTLTTNDAYAKGALVLGSSLKQHRTTRRLVVLATPQVSDSMRKVLETVFDEVIMVDVLDSGDSAHLTLMKRPELGVTLTKLHCWSLTQYSKCVFMDADTLVLANIDDLFDREELSAAPDPGWPDCFNSGVFVYQPSVETYNQLLHLASEQGSFDGGDQGILNTFFSSWATTDIRKHLPFIYNLSSISIFSYLPAFKVFGASAKVVHFLGRVKPWNYTYDPKTKSVKSEAHDPNMTHPEFLILWWNIFTTNVLPLLQQFGLVKDTCSYVNVEDVSGAISHLSLGEIPAMAQPFVSSEERKERWEQGQADYMGADSFDNIKRKLDTYLQ
notes: glycogenin 1, human, encoded by GYG1, cDNA NM 001184720, full length; expected ~37.5 kDa; the C-terminal GN34 region is modelled as residues 300-332, which fits the 333-residue isoform; Cloned in pFL (with untagged GS) and in pFastBac (co-infected with His6-TEV-GS WT or mutants); Both carry an N-terminal His6 tag and a cleavable site, so they are treated as one molecule; also called GN(Y195F); GN …
binds: [1] | [2] | [3]
